# Data from patent publication US20250352576A1 (University of California, published 2025).
# B1: YMYNKVAVL peptide (Atl2/ATL2 alternative splicing variant) (peptide)
# peptide: YMYNKVAVL
# notes: Peptide added to T2 cells at 25 ug per ml; also called one of the SYY peptides; candidate therapeutic peptide
# B2: SMLEKTALL peptide (Sfxn5/SFXN5 alternative splicing variant) (peptide)
# peptide: SMLEKTALL
# notes: as for B1
# Molecular target: T1, HLA-A*02:01 on TAP deficient T2 cells (human)
# T1 construct: whole, on cells; Endogenous HLA class I of T2 cells, detected with the pan HLA antibody W6/32
# Assay: T2 cell HLA stabilization assay, flow cytometry with pan HLA antibody W6/32
# Procedure: HLA-A*02:01 TAP deficient T2 cells (2×10⁵ in 200 μL) were incubated with peptides (25 μg per ml in 10% DMSO in PBS) in AIM-V plus 1% human serum at 25° C. overnight to facilitate peptide binding by reducing HLA turnover. The following day the cells were returned to 37° C. for 5 hours then stained with a pan HLA antibody (FITC-conjugated HLA, B, C; clone W6/32). HLA class I expression was measured by flow cytometry, and the percent increase in mean fluorescence intensity over cells incubated with 10% DMSO alone was calculated.
row,Binder,binding result
1,B1,binds
2,B2,binds
